T1: Boi1 SH3 (BOI1_YEAST), P38041
T1 chain: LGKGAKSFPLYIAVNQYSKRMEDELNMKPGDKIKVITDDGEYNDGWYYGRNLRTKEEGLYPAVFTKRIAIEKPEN

T2: Boi2 SH3 (BOI2_YEAST), P39969
T2 chain: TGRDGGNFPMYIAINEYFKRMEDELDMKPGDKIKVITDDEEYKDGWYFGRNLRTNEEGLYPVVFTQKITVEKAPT

T3: Myo5 SH3 (MYO5_YEAST), Q04439
T3 chain: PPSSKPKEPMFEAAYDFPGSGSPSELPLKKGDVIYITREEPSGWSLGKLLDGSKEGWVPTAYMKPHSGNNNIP

T4: Rvs167 SH3 (RV167_YEAST), P39743
T4 chain: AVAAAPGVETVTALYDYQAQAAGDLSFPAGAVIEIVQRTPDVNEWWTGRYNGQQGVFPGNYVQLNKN

T5: Yfr024 SH3 (LSB3_YEAST), P43603
T5 chain: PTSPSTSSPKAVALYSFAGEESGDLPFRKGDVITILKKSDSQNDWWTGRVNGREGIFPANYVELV

T6: Yhr016c SH3 (YSC84_YEAST), P32793
T6 chain: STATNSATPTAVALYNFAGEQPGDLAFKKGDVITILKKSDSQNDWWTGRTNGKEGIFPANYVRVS


Tests used:
Assay in all cases: SPOT array
[1] = target: T1, Boi1 SH3 (BOI1_YEAST), P38041
[2] = target: T2, Boi2 SH3 (BOI2_YEAST), P39969
[3] = target: T3, Myo5 SH3 (MYO5_YEAST), Q04439
[4] = target: T4, Rvs167 SH3 (RV167_YEAST), P39743
[5] = target: Sho1 SH3 (SHO1_YEAST), P40073
Sho1 SH3 (SHO1_YEAST), P40073, sequence (P40073 295-366): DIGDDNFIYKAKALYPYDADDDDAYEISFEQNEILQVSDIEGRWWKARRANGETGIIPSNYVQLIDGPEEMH

[6] = target: T5, Yfr024 SH3 (LSB3_YEAST), P43603
[7] = target: T6, Yhr016c SH3 (YSC84_YEAST), P32793

Binder | normalised SPOT signal, Boehringer light units (BLU); mean over the file's lines of this peptide [1] | normalised SPOT signal, Boehringer light units (BLU); mean over the file's lines of this peptide [2] | normalised SPOT signal, Boehringer light units (BLU); mean over the file's lines of this peptide [3] | normalised SPOT signal, Boehringer light units (BLU); mean over the file's lines of this peptide [4] | normalised SPOT signal, Boehringer light units (BLU); mean over the file's lines of this peptide [5] | normalised SPOT signal, Boehringer light units (BLU); mean over the file's lines of this peptide [6] | normalised SPOT signal, Boehringer light units (BLU); mean over the file's lines of this peptide [7]
LDVRRIYPKGPLLV [YIL113W 50-63] | 4730 | 10.8 | 232 | 34.3 | 131 | 157 | 32.3
LGSEKSSPLAPAVA [YDL197C 382-395] | 72.6 | 52.5 | 122 | 64.8 | 11.2 | 21.4 | 26.8
LITDKEYPVRPAYT [YKL196C 79-92] | 139 | 21.9 | 136 | 17.5 | 7.7 | 126 | 19.3
LDTHKESPLRPKVR [YKR003W 305-318] | 2820 | 18.9 | 199 | 34.1 | 46.9 | 58.4 | 32.8
LDPGKNTPGLPEET [YAL048C 610-623] | 37.7 | 126 | 156 | 33.4 | -0 | 36.6 | 15.3
LIWHKNKPTEPDNK [YAR009C 1032-1045] | 120 | 29.2 | 155 | 102 | 82.2 | 587 | 94.9
LDKGKHVPSKPVSN [YKL054C 145-158] | 364 | 12.7 | 201 | 60.9 | 76.4 | 18.1 | 4.8
LDSMKNLPLNPSKK [YDL027C 309-322] | 178 | 41.3 | 268 | 72.9 | 8000 | 348 | 78.8
LGPLKYAPHLPFSK [YJL176C 589-602] | 133 | 71.6 | 428 | 81.1 | 227 | 213 | 150
LDLSKYGPLPPSRA [YLR143W 384-397] | 1630 | 20.4 | 154 | 207 | 78.9 | 359 | 256
LIWHKNKPTKPDNK [YBL101W-B 1606-1619] | 268 | 27.9 | 300 | 85.3 | 106 | 862 | 71.1

Second part, the binder after the results:

normalised SPOT signal, Boehringer light units (BLU); mean over the file's lines of this peptide [1] | normalised SPOT signal, Boehringer light units (BLU); mean over the file's lines of this peptide [2] | normalised SPOT signal, Boehringer light units (BLU); mean over the file's lines of this peptide [3] | normalised SPOT signal, Boehringer light units (BLU); mean over the file's lines of this peptide [4] | normalised SPOT signal, Boehringer light units (BLU); mean over the file's lines of this peptide [5] | normalised SPOT signal, Boehringer light units (BLU); mean over the file's lines of this peptide [6] | normalised SPOT signal, Boehringer light units (BLU); mean over the file's lines of this peptide [7] | Binder
15.5 | 47.9 | 154 | 28.2 | 36 | 12.7 | 2 | LIDFKDYPDVPKVP [YNL231C 198-211]
59.1 | 4.9 | 89.2 | 66.6 | 18.8 | 42.8 | 15.7 | LFDEKVKPQIPQLR [YML034W 45-58]
281 | 25.5 | 170 | 139 | 15.8 | 342 | 426 | LFGIRNNPFIPITG [YLR214W 271-284]
110 | 0 | 135 | 114 | 78.8 | 64.1 | 14.8 | LEFPKDYPLSPPKL [YMR022W 58-71]
180 | 15.1 | 168 | 16.5 | 10800 | 49 | 44.6 | LGLHKWLPDIPLFE [YOR336W 752-765]

From paper PMC314469, “Protein Interaction Networks by Proteome Peptide Scanning” (PLoS Biology, 2004)
